Laboratory results as given in patent publication US12497460B2, “Anti-MSR1 antibodies and methods of use thereof” (REGENERON PHARMACEUTICALS, INC., priority 2018, dated 2025).
Substitutions are numbered along the chain they refer to. Names may count otherwise.

T1: MSR1-mediated Dil-OxLDL uptake in HEK293.Myc.hMSR1 cells (Homo sapiens, UniProt P21757)
T1 construct: expressed in transfected cells; host or cells: HEK293 (lentiviral transduction, hygromycin selection)
T1 sequence (P21757 1-451): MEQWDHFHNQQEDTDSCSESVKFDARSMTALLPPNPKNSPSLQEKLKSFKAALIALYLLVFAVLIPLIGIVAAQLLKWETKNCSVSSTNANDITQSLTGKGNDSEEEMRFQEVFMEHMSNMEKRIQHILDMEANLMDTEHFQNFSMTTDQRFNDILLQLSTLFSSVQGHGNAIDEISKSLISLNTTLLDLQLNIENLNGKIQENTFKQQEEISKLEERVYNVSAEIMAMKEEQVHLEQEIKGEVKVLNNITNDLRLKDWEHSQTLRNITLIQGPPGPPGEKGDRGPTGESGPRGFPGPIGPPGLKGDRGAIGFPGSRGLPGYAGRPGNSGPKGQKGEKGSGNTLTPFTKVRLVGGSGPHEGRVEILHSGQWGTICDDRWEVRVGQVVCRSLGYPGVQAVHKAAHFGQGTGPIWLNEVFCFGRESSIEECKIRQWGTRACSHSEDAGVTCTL

T2: biot-AGE-BSA binding to His9-hMSR1 (Homo sapiens, UniProt P21757)
T2 construct: human MSR1 extracellular domain expressed with a N-terminal nonahistidine tag; His9 (nonahistidine) (N); purchased R&D Systems 2708-MS
T2 sequence (P21757 77-451 limits assumed): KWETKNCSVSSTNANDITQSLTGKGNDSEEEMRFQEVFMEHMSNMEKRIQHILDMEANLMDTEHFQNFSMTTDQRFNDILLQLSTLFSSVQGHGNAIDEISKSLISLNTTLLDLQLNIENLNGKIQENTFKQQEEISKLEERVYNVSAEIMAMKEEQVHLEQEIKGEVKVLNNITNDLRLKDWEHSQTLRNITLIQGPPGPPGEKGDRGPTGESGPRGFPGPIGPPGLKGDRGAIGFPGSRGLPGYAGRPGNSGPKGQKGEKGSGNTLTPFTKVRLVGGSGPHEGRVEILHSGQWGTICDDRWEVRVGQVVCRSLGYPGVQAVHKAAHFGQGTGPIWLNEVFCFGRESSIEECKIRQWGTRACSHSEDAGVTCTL

B1: H1H21227N-N297Q: "modified versions of 21227N (H1H21227N-N297Q and H1H21227N-N297D)"; anti-MSR1 antibody "with a N297Q single point mutation" (antibody, V domains shown)
VH: QVQLVQSGAEVKKPGASVKVSCKVSGYTLTELSIHWVRQVPGKGLEWMGGFDPEEGETIFAQEFRDRVTLTEDTSPDTAYMELSSLKSEDAAVYYCTTPRYCNNGICYDYWGQGTLVTVSS
VL: DIQMTQSPSSLSASVGDRVTITCRASQSISNYLNWYQQKPGKAPKLLIYTASSLQSGVPSRFSGSGSGTDFTLTISSLQTEDFATYYCQQSYSNFPITFGQGTRLEIKR
B2: H1H21231N-N297Q: modified version of "21231N (H1H21231N-N297Q) anti-MSR1 antibodies" with "a N297Q single point mutation" (antibody, V domains shown)
VH: EVQLVESGGGLVQPGGSLRLSCAASGFTFSDHYMDWVRQAPGKGLEWVGRTRNKANSHTTEYTASVTGRFTISRDDSRNSLYLQMNSLKTEDTAVYYCVRAGIIGTLFDYWGQGTLVTVSS
VL: B1 VL with S7F, N31S, Y32F, Y36F, L46F, T50A, T80P, N94S, F95P
B3: H1H21227N-N297D: "The 21227N antibody was also produced as a third version with a N297D mutation" (antibody, V domains shown)
VH: B1 VH
VL: B1 VL
B4: H1H21231N: "anti-MSR1 antibodies ... (21227N, 21231N, 21234N) were produced with the original human Fcγ portion"; "H1H" = human IgG1 Fc (antibody, V domains shown)
VH: B2 VH
VL: B1 VL with S7F, N31S, Y32F, Y36F, L46F, T50A, T80P, N94S, F95P
modifications: human IgG1 Fc
notes: "anti-MSR1 antibodies ; (21227N, 21231N, 21234N) were produced with the original human Fcγ portion"; "H1H" = human IgG1 Fc
B5: H1H21227N: "anti-MSR1 antibodies ... (21227N, 21231N, 21234N) were produced with the original human Fcγ portion"; "H1H" = human IgG1 Fc (antibody, V domains shown)
VH: B1 VH
VL: B1 VL
modifications: human IgG1 Fc
notes: as for B4
B6: H1H27729P-N297Q: anti-MSR1 antibody "made with an N297Q single point mutation in human Fcγ portion" (antibody, V domains shown)
VH: QVQLVESGGGLVKPGGSLRLSCAASGFIFSDYYMSWIRQAPGKGLEWVSYISSSGTTIYGDSVKGRFTMSRDNAKNSLYLQMNSLRAEDTAVYYCARNYALFDYWGQGTLVTVSS
VL: DIQMTQSPSSLSASVGDRVTITCQASQDISKYLNWYQQKPGKAPKLLIYYTSNLETGVPSRFSGSGSGTDFTFTISSLQPEDIATYYCHQSDYLPFTFGPGTKVDIKR

What was measured:
[1] = molecular target: T1, MSR1-mediated Dil-OxLDL uptake in HEK293.Myc.hMSR1 cells; test: Ligand uptake assay, Dil-OxLDL; format: cell-based; conditions: 10 μg/mL Dil-OxLDL; for IC50: read-out: Dil-Oxidized LDL IC50; for Dil-Oxidized LDL % Inhibition: maximum inhibition
Procedure: A bioassay was generated to assess the ability of the exemplary anti-MSR1 antibodies to regulate the uptake of certain MSR1 ligands.
Generation of MSR1-expressing cell lines for assay. […] The resulting cell line, referred to here as “HEK293.Myc.hMSR1”, was selected and maintained in DMEM containing 10% FIBS, NEAA, penicillin/streptomycin, L-glutamine, and 100 μg/mL hygromycin.
Ligand uptake assay. […] After 30 minutes, either oxidized or acetylated low-density lipoprotein (LDL) labeled with 1,1′dioctadecyl-3,3,3′,3′-tetramethylindocarbocyanine perchlorate (referred to as “Dil-OxLDL” or “Dil-AcLDL,” respectively) was added to the cells at a constant concentration of 10 μg/mL. […] Results were analyzed using nonlinear regression (4-parameter logistics) with the Prism 7 program to obtain EC50 and IC50 values. The percentage of inhibition was calculated with the Relative Fluorescent Unit (RFU) values by using the following equation: […]
In the equation, “RFUBaseline” is the fluorescence value from the cells treated with 10 μg/mL ligand without antibodies, “RFUInhibition” is the minimum fluorescence value with for a particular antibody with 10 μg/mL ligand, and “RFUBackground” is the fluorescence value from cells without any ligand or antibodies.

[2] = molecular target: T2, biot-AGE-BSA binding to His9-hMSR1; test: Competition sandwich ELISA, blocking of biot-AGE-BSA binding; conditions: 400 pM biot-AGE-BSA
Procedure: The ability of anti-MSR1 antibodies disclosed herein to block the binding of various ligands to human MSR1 was measured using three competition sandwich ELISA assays. The ligands used in the assays were: (1) acetylated LDL (Ac-LDL), (2) oxidized LDL (Ox-LDL), and (3) advanced glycation end-products of bovine serum albumin (AGE-BSA).
For the assay, recombinant monomeric human MSR1 protein comprised of a portion of the human MSR1 extracellular domain expressed with a N-terminal 9-Histidine tag (His9-hMSR1; R&D Systems, Cat #2708-MS) was coated at a concentration of 2 μg/mL in PBS on a 96-well microtiter plate overnight at 4° C. for use in competition ELISA assays with Ac-LDL, Ox-LDL, or biotinylated-AGE-BSA (“biot-AGE-BSA”). […] Anti-MSR1 antibodies or isotype control antibodies were serially diluted as appropriate for each tested ligand and added in duplicate for each serial dilution set to microtiter plates coated with His9-hMSR1. Buffer alone was also added to wells on each coat. After 1 hour incubation at room temperature, without wash, a final constant concentration of 50 pM Ac-LDL (Life Technologies/ThermoFisher Scientific, Cat #L-35354), 5 nM or 10 nM Ox-LDL (Alfa Aesar, Cat #J65591), or 400 pM biot-AGE-BSA (R&D Systems, Cat #BT4127) were added to plates with His9-hMSR1, and the plates were incubated for an additional 1 hour at room temperature. (Concentrations of Ac-LDL, Ox-LDL and biot-AGE-BSA for antibody inhibition assays were selected from the approximate midway point within the linear portion of individual binding curves of Ac-LDL, Ox-LDL or biot-AGE-BSA to plate-coated His9-hMSR1.) Wells were washed, and plate-bound Ac-LDL or Ox-LDL were detected with anti-LDL rabbit antibody (Alfa Aesar, Cat #J64398) in combination with anti-rabbit IgG (H+L) specific donkey polyclonal antibodies conjugated with horseradish peroxidase (HRP) (JacksonImmunoResearch, Cat #711-035-152) and biot-AGE-BSA was detected with a streptavidin-HRP (ThermoFisher Scientific, Cat #N200). Plates were developed using TMB substrate solution (BD Biosciences, Cat #51-2606KC & Cat #51-2607KC) according to manufacturer's recommendation and absorbance at 450 nm was measured on a Victor™ Multilabel Plate Reader (PerkinElmer™). This assay was conducted in four different assay runs.
Data analysis was performed using a sigmoidal dose-response model within Prism™ software (GraphPad). Percent blockade at maximum concentration of the antibody tested in each assay was calculated as an indicator of the ability of the antibodies to block the binding of Ac-LDL, Ox-LDL or biot-AGE-BSA to His9-hMSR1 on the plate relative to the baseline of the assay. In the calculation, binding signal of the same concentrations of Ac-LDL, Ox-LDL, or biot-AGE-BSA used for the assays in the absence of antibody was referenced as 100% binding or 0% blocking, while the baseline of the assay, defined as binding signal of the sample of buffer without MSR1 ligands or antibody, was referenced as 0% binding or 100% blocking. The maximum percent blockade at the highest concentration of antibody tested in each assay are reported for all antibodies. Negative percent blockade numbers reflected higher MSR1 ligands binding to plate coated His9-hMSR1 in the presence of antibodies.

Molecule | IC50 [1] [nM] | Dil-Oxidized LDL % Inhibition [1] | Anti-MSR1 antibody (300 nM) blocking of biot-AGE-BSA binding to His9-hMSR1 % Blocking [2] [%] | Dil-Oxidized LDL IC50 [1] | maximum inhibition of Dil-OxLDL uptake [1]
B1 | 1.8 | 94% | 96 | – | –
B2 | – | – | −50 | – | –
B3 | – | – | 97 | – | –
B4 | 3.6 | 78% | −44 | – | –
B5 | 2 | 89% | 99 | – | –
B6 | – | no inhibition | – | no inhibition | no inhibition
